Reference: publication PMC3595137 (Nature communications, 2013)
Numbering of substitutions follows the chain as printed.

Tests used:
[1] = molecular target: T1, HA-α-SNAP M105I (hyh mutant) (human, UniProt P54920 1-295, M105I); experiment: co-IP
T1 sequence: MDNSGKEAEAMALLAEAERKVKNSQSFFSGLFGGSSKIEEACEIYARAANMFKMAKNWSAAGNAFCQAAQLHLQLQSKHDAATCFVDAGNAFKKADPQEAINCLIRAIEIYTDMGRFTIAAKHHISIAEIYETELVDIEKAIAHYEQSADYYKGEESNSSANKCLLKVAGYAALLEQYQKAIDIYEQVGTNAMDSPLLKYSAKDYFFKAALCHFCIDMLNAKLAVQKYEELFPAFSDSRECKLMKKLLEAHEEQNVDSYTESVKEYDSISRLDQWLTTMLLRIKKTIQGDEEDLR

[2] = molecular target: FLAG-tagged AMPK-γ1 (wild type) (UniProt P54619 1-331); experiment: pull-down
Chain of FLAG-tagged AMPK-γ1 (wild type) (P54619 whole entry): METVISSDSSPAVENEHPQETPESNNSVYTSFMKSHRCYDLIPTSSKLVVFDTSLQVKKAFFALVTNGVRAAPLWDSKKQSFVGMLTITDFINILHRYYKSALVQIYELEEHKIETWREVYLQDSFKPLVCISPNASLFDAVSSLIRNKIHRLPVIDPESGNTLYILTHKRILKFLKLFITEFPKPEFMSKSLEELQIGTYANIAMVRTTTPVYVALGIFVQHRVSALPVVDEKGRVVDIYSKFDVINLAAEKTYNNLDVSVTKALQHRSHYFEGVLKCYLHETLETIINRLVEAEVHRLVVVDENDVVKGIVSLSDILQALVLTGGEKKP

B1: FLAG-AMPKα2 (natural protein)
chain: MAEKQKHDGRVKIGHYVLGDTLGVGTFGKVKIGEHQLTGHKVAVKILNRQKIRSLDVVGKIKREIQNLKLFRHPHIIKLYQVISTPTDFFMVMEYVSGGELFDYICKHGRVEEMEARRLFQQILSAVDYCHRHMVVHRDLKPENVLLDAHMNAKIADFGLSNMMSDGEFLRTSCGSPNYAAPEVISGRLYAGPEVDIWSCGVILYALLCGTLPFDDEHVPTLFKKIRGGVFYIPEYLNRSVATLLMHMLQVDPLKRATIKDIREHEWFKQDLPSYLFPEDPSYDANVIDDEAVKEVCEKFECTESEVMNSLYSGDPQDQLAVAYHLIIDNRRIMNQASEFYLASSPPSGSFMDDSAMHIPPGLKPHPERMPPLIADSPKARCPLDALNTTKPKSLAVKKAKWHLGIRSQSKPYDIMAEVYRAMKQLDFEWKVVNAYHLRVRRKNPVTGNYVKMSLQLYLVDNRSYLLDFKSIDDEVVEQRSGSSTPQRSCSAAGLHRPRSSFDSTTAESHSLSGSLTGSLTGSTLSSVSPRLGSHTMDFFEMCASLITTLAR
[1]
  fold increase in co-immunoprecipitation against WT α-SNAP: ~2 fold

B2: purified recombinant α-SNAP (His-tagged, wild type) (natural protein)
chain: T1 sequence with I105M
[2]
  fold increase in binding with ATP against no nucleotide: 2 fold
